Data set [1] deals with the molecule itself. Put plainly: dynamic light scattering; BDNF alone; Figure S4C; conditions not shown.
Data set [2] has as its target TrkB Ig2 domain (His283-Glu428) (rat). Put plainly: MST; in solution; TrkB variant (intact or legumain-processed) labelled with NT-647 RED and kept constant, unlabelled BDNF (20.5 uM) in a 16-step 1:2 dilution series; 1x PBS pH 7.4, 0.005% Tween 20; 10 min at RT; Monolith NT.115.
Data set [3] addresses legumain-processed TrkB Ig2 domain (rat). Described as above.
Data set [4] addresses T1, TrkB ectodomain (Ser29-Glu428) (rat, UniProt Q63604-1 29-428, several glycosylation forms; labelled with NT-647 RED dye in the MST set-up with labelled TrkB).
T1 construct: Secreted by way of the pHLsec vector; also called TrkB ECD; full-length ectodomain; source: HEK293S, transfected (pHLsec), secreted into medium, purified (Ni-NTA); not shown: His6, C-terminal, kept
The data set is described as above. The following applies: both partners purified.

For data set [5], the target named is T2, legumain-processed TrkB ectodomain (rat, UniProt Q63604-1 29-391, glycosylated; labelled with NT-647 RED dye in the MST).
T2 construct: TrkB, rat, ectodomain construct Ser29-Glu428 cut by legumain in the membrane linker; dominant cleavage site after Asn391, minor sites after Asp385 and Asn389, so the C-terminus is a mixture; C-terminal limit is that of the dominant cleavage site (Asn391); the His6 tag is lost with the cut fragment; also called legumain-processed TrkB ECD; processed TrkB ECD; source: HEK293S, purified (Ni-NTA), …
T2 sequence (Q63604 29-391): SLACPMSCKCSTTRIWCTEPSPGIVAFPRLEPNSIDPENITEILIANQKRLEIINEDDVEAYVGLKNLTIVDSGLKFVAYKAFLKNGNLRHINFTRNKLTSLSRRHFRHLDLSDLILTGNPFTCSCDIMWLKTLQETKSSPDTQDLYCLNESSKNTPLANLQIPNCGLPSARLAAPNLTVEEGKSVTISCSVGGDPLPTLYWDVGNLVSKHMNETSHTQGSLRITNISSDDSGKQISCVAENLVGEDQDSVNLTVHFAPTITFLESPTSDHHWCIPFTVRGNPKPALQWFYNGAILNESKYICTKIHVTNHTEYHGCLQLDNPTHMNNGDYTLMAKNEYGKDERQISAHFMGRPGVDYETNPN
The description is as above. The following applies: both partners purified.

The target of data set [6] is TrkB Ig2 domain (His283-Glu428) (rat). The data set is described as follows: MST; in solution; TrkB ECD or Ig2 with proBDNF; which partner was labelled is not told; MST buffer 1x PBS pH 7.4, 0.005% Tween 20.
In data set [7] the target is T1, TrkB ectodomain (Ser29-Glu428). Described as above. The following applies: both partners purified.

T1 sequence (Q63604 29-428): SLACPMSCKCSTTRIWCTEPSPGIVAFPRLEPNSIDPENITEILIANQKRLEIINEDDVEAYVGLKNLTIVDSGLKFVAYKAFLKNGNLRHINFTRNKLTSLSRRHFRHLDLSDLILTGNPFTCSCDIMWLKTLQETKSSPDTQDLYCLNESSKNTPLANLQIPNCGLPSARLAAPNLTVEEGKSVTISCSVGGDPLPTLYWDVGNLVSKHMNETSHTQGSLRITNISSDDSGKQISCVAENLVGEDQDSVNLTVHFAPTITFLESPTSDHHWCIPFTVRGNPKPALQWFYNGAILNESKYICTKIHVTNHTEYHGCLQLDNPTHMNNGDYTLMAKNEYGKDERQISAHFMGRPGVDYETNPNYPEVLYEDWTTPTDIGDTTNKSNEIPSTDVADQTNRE

B1: Brain-derived neurotrophic factor (BDNF), mature (His131-Arg249) (ligand, rat, UniProt P23363 131-249, looked up)
chain: HSDPARRGELSVCDSISEWVTAADKKTAVDMSGGTVTVLEKVPVSKGQLKQYFYETKCNPMGYTKEGCRGIDKRHWNSQCRTTQSYVRALTMDSKKRIGWRFIRIDTSCVCTLTIKRGR
modifications: disulfides Cys143-Cys210, Cys188-Cys239, Cys199-Cys241; labelled with NT-647 RED dye in the MST set-up with labelled BDNF
notes: mature BDNF, cut from proBDNF by furin, His131-Arg249; The species rests on the legend 'Preparation of rat TrkB and proBDNF'; the printed residue numbers fit a 249-residue precursor; also called mature BDNF
Consider B1, for which the “stoichiometry N” value in data set [1] came out at 2. Also, the dissociation constant Kd in data set [2] came to 67 nM; in data set [3], 300 nM; in data set [4] it was 106 ± 44 nM; in data set [5], 188 ± 82 nM.

B2: proBDNF (ligand, rat, UniProt P23363 19-249, looked up)
chain: APMKEANVHGQGNLAYPAVRTHGTLESVNGPRAGSRGLTTTSLADTFEHVIEELLDEDQKVRPNEENHKDADLYTSRVMLSSQVPLEPPLLFLLEEYKNYLDAANMSMRVRRHSDPARRGELSVCDSISEWVTAADKKTAVDMSGGTVTVLEKVPVSKGQLKQYFYETKCNPMGYTKEGCRGIDKRHWNSQCRTTQSYVRALTMDSKKRIGWRFIRIDTSCVCTLTIKRGR
notes: proBDNF, the pro-form of brain-derived neurotrophic factor; also called pro-form of BDNF; source: E. coli Rosetta 2 (DE3), inclusion bodies, folded in vitro, purified (SP-sepharose)
Regarding B2, the Kd in data set [6] came to 441 nM; in data set [7], 306 nM.

For the origin of these results see paper PMC10049731, “Legumain Functions as a Transient TrkB Sheddase” (International Journal of Molecular Sciences, 2023).
